Measurements published in patent US20250171534A1 (D2M BIOTHERAPEUTICS, published 2025).

Columns and labels:
[1] = target: T1, LILRB1-ECD-HIS (SinoBiological Cat #: 16014-H02H) (human, UniProt Q8NHL6 24-461); experiment: BLI epitope binning (Gator)
T1 construct: Bought protein; also called monomeric antigen LILRB1-ECD-HIS; not shown: His tag

[2] = target: T2, human LILRB2 expressed on cells (human, UniProt Q8N423 22-597); experiment: flow cytometry, CHO-LILRB2 cells
T2 construct: In 293T cells it was expressed from pCMV3-LILRB2-GFP; also called CHO-LILRB2; Jurkat-LILRB2

[3] = target: T2, human LILRB2 expressed on cells; experiment: flow cytometry, CHO-LILRB2 cells; remark: listed apart in the source
[4] = target: T3, LILRB2-ECD-HIS (SinoBiological Cat #: 14132-H02H) (human, UniProt Q8N423 22-460); experiment: BLI epitope binning (Gator), monomeric antigen
T3 construct: Bought protein; also called monomeric antigen LILRB2-ECD-HIS; not shown: His tag

[5] = target: T4, human LILRB1 expressed on cells (human, UniProt Q8NHL6 24-650); experiment: flow cytometry on 293T cells transiently expressing LILRB1, APC anti-human Fc; gMFI as fold to IgG staining
T4 construct: In 293T cells it was expressed from pCMV3-LILRB1-GFP; also called CHO-LILRB1; Jurkat-LILRB1

[6] = target: T5, LILRB3 expressed on cells (human, UniProt O75022 24-631); experiment: flow cytometry on 293T cells transiently expressing LILRB3, APC anti-human Fc; gMFI as fold to IgG staining
T5 construct: whole, on cells; Expressed with a GFP tag from the bought plasmid; also called human LILRB3; CHO-LILRB3

[7] = target: T6, LILRB5 expressed on 293T cells (UniProt O75023 24-590, limits assumed); experiment: flow cytometry on 293T cells transiently expressing LILRB5, APC anti-human Fc; gMFI as fold to IgG staining
T6 construct: whole, on cells; GFP-tagged, transient

[8] = target: T7, LILRA2 expressed on 293T cells (UniProt Q8N149 24-483, limits assumed); experiment: flow cytometry on 293T cells transiently expressing LILRA2, APC anti-human Fc; gMFI as fold to IgG staining
T7 construct: whole, on cells; GFP-tagged, transient

[9] = target: T8, LILRA3 expressed on 293T cells (UniProt Q8N6C8 24-439, limits assumed); experiment: flow cytometry on 293T cells transiently expressing LILRA3, APC anti-human Fc; gMFI as fold to IgG staining
T8 construct: whole, on cells; GFP-tagged, transient

[10] = target: T9, LILRA6 expressed on cells (human, UniProt Q6PI73 24-481); experiment: flow cytometry on 293T cells transiently expressing LILRA6, APC anti-human Fc; gMFI as fold to IgG staining
T9 construct: whole, on cells; GFP-tagged; also called human LILRA6; CHO-LILRA6

[11] = target: T10, LILRA5 expressed on 293T cells (UniProt A6NI73 42-299, limits assumed); experiment: flow cytometry on 293T cells transiently expressing LILRA5, antibody 5 µg/mL, APC anti-human Fc; gMFI as fold to IgG staining
T10 construct: whole, on cells; GFP-tagged, transient
T10 sequence (A6NI73 42-299 limits assumed): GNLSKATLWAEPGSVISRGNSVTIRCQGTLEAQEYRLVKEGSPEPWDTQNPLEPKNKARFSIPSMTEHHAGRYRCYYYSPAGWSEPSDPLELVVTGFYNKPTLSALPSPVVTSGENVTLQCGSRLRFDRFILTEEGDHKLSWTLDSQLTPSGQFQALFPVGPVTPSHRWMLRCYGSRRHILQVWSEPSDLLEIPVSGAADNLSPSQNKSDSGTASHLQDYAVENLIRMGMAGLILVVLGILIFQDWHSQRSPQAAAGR

T2 sequence (Q8N423 other isoform, or with tags, fused parts or gaps limits assumed): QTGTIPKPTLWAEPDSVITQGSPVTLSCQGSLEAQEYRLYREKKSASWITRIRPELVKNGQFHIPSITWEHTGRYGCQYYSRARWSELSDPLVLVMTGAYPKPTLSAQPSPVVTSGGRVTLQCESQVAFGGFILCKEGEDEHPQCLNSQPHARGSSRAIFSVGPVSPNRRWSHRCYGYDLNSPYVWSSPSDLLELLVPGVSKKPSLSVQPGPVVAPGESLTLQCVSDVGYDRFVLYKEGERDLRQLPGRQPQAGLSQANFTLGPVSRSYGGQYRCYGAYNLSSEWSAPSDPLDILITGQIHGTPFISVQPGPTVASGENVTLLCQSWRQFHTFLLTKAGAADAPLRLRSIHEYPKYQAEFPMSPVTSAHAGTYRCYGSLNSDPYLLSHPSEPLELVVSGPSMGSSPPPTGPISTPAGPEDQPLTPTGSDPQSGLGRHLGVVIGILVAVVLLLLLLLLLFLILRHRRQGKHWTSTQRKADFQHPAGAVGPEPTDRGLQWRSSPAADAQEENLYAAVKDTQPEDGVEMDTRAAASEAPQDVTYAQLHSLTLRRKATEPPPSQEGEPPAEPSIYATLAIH
T4 sequence (Q8NHL6 other isoform, or with tags, fused parts or gaps limits assumed): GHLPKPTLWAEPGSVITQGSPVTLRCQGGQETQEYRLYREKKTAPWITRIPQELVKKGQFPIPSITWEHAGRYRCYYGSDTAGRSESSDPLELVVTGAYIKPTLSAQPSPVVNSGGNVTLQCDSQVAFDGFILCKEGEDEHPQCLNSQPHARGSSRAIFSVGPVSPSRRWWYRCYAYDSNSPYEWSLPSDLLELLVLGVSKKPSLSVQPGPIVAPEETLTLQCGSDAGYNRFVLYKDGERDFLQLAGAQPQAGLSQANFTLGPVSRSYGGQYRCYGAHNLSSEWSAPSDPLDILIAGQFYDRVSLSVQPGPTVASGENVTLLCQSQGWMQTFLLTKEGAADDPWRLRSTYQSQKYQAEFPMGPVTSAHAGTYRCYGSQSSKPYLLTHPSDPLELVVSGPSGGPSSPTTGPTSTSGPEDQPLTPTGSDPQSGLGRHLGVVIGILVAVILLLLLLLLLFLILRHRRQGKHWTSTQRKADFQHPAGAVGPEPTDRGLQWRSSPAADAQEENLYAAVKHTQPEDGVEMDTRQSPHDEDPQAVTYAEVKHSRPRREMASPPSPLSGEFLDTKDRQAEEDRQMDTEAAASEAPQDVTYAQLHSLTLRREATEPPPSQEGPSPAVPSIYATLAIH
T6 sequence (O75023 24-590 limits assumed): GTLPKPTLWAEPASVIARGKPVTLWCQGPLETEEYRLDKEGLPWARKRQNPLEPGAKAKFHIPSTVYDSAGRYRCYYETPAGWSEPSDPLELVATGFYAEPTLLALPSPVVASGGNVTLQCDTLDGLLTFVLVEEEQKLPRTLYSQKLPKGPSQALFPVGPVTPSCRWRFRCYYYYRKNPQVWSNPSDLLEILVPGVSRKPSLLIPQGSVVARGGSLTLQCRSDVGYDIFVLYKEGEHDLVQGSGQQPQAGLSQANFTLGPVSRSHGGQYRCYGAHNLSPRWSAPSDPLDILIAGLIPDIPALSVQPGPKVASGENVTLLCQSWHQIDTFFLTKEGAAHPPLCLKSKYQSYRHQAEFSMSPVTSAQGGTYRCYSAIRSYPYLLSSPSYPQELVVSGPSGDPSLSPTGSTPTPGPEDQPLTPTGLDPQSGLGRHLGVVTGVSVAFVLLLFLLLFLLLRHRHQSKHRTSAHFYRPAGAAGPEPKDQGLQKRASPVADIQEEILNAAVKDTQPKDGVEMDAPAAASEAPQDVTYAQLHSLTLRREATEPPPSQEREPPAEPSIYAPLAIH
T3 sequence (Q8N423 other isoform, or with tags, fused parts or gaps H02H H02H): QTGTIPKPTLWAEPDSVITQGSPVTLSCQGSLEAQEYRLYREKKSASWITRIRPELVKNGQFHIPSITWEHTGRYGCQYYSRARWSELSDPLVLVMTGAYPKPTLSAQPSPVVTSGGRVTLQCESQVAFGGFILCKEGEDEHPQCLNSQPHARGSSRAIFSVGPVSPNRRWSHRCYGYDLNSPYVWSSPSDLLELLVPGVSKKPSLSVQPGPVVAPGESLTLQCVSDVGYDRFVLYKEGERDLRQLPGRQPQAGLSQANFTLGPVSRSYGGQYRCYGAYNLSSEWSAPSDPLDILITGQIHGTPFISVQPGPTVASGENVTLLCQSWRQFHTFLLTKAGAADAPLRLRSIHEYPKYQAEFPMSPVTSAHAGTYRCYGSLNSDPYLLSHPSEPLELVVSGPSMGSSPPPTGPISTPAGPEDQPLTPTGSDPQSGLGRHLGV
T9 sequence (Q6PI73 24-481): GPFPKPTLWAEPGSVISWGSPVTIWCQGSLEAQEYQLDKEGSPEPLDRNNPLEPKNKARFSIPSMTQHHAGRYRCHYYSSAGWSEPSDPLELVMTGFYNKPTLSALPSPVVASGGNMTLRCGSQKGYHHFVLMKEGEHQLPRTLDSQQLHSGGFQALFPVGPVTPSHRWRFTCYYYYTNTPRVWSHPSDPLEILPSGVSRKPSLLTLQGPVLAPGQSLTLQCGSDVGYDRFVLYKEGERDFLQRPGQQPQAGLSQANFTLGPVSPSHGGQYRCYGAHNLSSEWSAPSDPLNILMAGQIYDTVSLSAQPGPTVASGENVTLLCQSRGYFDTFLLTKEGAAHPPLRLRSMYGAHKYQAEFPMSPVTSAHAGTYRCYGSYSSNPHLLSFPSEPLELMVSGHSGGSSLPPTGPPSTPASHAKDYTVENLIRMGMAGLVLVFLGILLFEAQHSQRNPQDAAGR
T8 sequence (Q8N6C8 24-439 limits assumed): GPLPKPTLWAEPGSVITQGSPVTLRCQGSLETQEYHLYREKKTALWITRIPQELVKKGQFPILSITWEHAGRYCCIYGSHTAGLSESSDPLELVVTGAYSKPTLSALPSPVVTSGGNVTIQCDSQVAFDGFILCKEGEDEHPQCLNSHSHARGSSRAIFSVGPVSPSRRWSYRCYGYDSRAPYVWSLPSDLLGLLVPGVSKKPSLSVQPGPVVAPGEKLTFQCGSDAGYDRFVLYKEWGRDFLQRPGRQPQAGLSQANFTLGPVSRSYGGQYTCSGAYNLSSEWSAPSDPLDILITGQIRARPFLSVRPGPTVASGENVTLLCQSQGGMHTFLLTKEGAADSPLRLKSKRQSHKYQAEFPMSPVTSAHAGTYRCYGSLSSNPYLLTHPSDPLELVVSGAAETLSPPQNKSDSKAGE
T1 sequence (Q8NHL6 other isoform, or with tags, fused parts or gaps H02H H02H): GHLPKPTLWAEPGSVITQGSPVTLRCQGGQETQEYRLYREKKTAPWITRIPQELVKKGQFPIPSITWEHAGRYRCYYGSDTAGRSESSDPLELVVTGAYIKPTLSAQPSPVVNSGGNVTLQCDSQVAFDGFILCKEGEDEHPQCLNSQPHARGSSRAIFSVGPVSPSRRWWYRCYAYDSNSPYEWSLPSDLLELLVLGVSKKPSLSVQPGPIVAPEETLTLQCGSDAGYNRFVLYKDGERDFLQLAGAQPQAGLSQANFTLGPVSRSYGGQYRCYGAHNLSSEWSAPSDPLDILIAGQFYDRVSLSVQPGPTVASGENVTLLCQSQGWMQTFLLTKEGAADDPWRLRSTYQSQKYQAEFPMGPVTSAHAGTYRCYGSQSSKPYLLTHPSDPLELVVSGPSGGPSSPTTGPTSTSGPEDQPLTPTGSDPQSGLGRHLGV
T7 sequence (Q8N149 24-483 limits assumed): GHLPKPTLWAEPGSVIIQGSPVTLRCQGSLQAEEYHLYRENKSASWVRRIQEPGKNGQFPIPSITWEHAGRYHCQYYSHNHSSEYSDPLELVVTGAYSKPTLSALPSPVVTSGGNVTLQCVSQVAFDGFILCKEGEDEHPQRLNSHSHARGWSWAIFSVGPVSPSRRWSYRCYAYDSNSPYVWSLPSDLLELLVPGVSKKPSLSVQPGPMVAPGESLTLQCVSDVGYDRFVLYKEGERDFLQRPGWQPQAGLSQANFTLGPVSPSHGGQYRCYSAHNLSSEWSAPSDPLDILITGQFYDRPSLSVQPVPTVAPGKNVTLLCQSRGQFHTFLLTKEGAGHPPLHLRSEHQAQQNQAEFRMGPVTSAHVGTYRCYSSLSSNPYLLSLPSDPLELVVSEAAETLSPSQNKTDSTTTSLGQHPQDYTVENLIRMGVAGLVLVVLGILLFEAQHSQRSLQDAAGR

binding result [1]: no binding
EC50 (read off the curve) [2]: ~0.04 µg/mL
EC50 [3]: 0.042 µg/mL
gMFI (max) [3]: 11800
binding result [4]: binds
binding result [5]: no binding (tested: 5 µg/mL)
binding result [6]: no binding (tested: 5 µg/mL)
binding result [7]: no binding (tested: 5 µg/mL)
binding result [8]: no binding (tested: 5 µg/mL)
binding result [9]: no binding (tested: 5 µg/mL)
binding result [10]: no binding (tested: 5 µg/mL)
binding result [11]: binds
B1: Anti-LILRB2 antibody 1E1(QE) (antibody, human IgG4 S228P, lambda, V domains shown)
VH: EVQLQQWGAGLLKPSETLSLTCAVYGGSFSGYYWSWIRQPPGKGLEWIGEINHSGSTNYNPSLKSRVTISVDTSKNQFSLKLSSVTAADTAVYYCARLPTRWVTTRYFDLWGRGTLVTVSS
VL: ESVLTQPPSVSGAPGQRVTISCTGSSSNIGAGYDVHWYQQLPGTAPKLLIYGNSNRPSGVPDRFSVSKSGASASLAITGLQAEDEADYYCQSFDNSLSAYVFGGGTQLTVLG
